Among the data in patent US20150344570A1 (published 2015) are He/Con_2b and He/Con_3a values, retold here.

The target in experiment [1] is T1, FcγRIIb (human, UniProt P31994 43-217).
T1 construct: extracellular domain; also called FcgRIIb; 2b
T1 sequence (looked up): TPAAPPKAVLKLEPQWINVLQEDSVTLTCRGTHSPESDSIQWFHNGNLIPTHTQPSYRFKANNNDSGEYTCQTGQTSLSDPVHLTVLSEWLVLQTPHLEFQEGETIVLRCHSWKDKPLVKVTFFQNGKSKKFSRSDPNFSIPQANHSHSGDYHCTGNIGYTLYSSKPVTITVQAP
As to the kind of experiment: SPR (Biacore), relative binding.

Experiment [2] has as its target T2, FcγRIIIa (human, UniProt P08637 17-208).
T2 construct: extracellular domain; also called FcgRIIIa; 3a
As to the kind of experiment: SPR (Biacore), relative binding.

Experiment [3] addresses T3, FcγRIIb extracellular domain with C-terminal His tag (human, UniProt P31994 43-217).
T3 construct: extracellular domain; also called 2b; FcgRIIb
T3 sequence (looked up): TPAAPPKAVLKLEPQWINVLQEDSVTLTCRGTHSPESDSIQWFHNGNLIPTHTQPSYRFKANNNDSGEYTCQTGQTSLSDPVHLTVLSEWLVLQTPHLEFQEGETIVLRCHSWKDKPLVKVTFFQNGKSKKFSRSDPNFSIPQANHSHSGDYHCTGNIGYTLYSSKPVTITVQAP
Kind of experiment: SPR, binding relative to GpH7-A5/GpH7-B3/GpL16-k0 = 100. How it is done: (§1) The heterodimerized antibodies He Abs in which one of the H chains was introduced with an alteration were assayed for their binding activities to each activating FcγR and inhibitory FcγR according to the method described in Example 4. […] The activating FcγRs in FIGS. 26, 27, 28, and 29 are FcγRIa, FcγRIIa (R), FcγRIIa (H), and FcγRIIIa, respectively.
(§2) Analysis of interaction between objective antibody and the FcγR was carried out using Biacore T100 (GE Healthcare). HBS-EP+ (GE Healthcare) was used as the running buffer, and the measurement temperature was set to 25° C. Chips produced by immobilizing the antigen peptide by the amine coupling method to a Series S Sencor Chip CM5 (GE Healthcare), or alternatively, chips produced by allowing preliminarily biotinylated antigen peptides to interact with and immobilize onto a Series S Sensor Chip SA (certified) (GE Healthcare) were used. Antibodies of interest were captured onto an antigen peptide-immobilized chip, and allowed to interact to each FcγR diluted with running buffer. To regenerate and repeatedly use the chip, the antibodies captured on the chip were washed off by reacting 10 mM glycine-HCl, pH 1.5.

In experiment [4] the target is T4, FcγRIIIa extracellular domain with C-terminal His tag (human, UniProt P08637 17-208).
T4 construct: extracellular domain; also called 3a; FcgRIIIa
T4 sequence (P08637 17-208): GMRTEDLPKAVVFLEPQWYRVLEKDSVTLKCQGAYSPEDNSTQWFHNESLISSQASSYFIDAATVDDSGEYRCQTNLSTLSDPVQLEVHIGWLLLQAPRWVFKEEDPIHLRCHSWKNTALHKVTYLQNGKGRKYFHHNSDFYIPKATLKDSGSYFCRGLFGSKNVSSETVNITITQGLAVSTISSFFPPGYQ
The description is as above. On the procedure: as §1, §2

T2 sequence (P08637 17-208): as above

B1: GpH7-A5/GpH7-B3 variant S337_08L/GpL16-k0 (antibody, human IgG1, kappa)
heavy 1: not shown
heavy 2: not shown
light: DIVMTQSPLSLPVTPGEPASISCQASESLVHSNRNTYLHWYLQKPGQSPQLLIYKVSNRFSGVPDRFSGSGSGTDFTLKISRVEAEDVGVYYCSQNTHVPPTFGQGTKVEIERTVAAPSVFIFPPSDEQLKSGTASVVCLLNNFYPREAKVQWKVDNALQSGNSQESVTEQDSKDSTYSLSSTLTLSKADYEKHKVYACEVTHQGLSSPVTKSFNRGEC
notes: mutation in the GpH7-B3 chain only; also called He Ab
B1: in experiment [1], the He/Con_2b is 100 % of GpH7-A5/GpH7-B3/GpL16-k0. For the same molecule, in experiment [2], the He/Con_3a is 96.9 % of GpH7-A5/GpH7-B3/GpL16-k0.

B2: GpH7-A5/GpH7-B3 variant A330_07I/GpL16-k0 (antibody, human IgG1, kappa)
heavy 1: not shown
heavy 2: not shown
light: DIVMTQSPLSLPVTPGEPASISCQASESLVHSNRNTYLHWYLQKPGQSPQLLIYKVSNRFSGVPDRFSGSGSGTDFTLKISRVEAEDVGVYYCSQNTHVPPTFGQGTKVEIERTVAAPSVFIFPPSDEQLKSGTASVVCLLNNFYPREAKVQWKVDNALQSGNSQESVTEQDSKDSTYSLSSTLTLSKADYEKHKVYACEVTHQGLSSPVTKSFNRGEC
notes: also called He Ab
On to B2, for which, in experiment [3], the He/Con_2b is 67.1 % of control. The He/Con_3a in experiment [4] is 103 % of control.

B3: GpH7-A5/GpH7-B3 variant A330_03V/GpL16-k0 (antibody, human IgG1, kappa)
heavy 1: not shown
heavy 2: not shown
light: DIVMTQSPLSLPVTPGEPASISCQASESLVHSNRNTYLHWYLQKPGQSPQLLIYKVSNRFSGVPDRFSGSGSGTDFTLKISRVEAEDVGVYYCSQNTHVPPTFGQGTKVEIERTVAAPSVFIFPPSDEQLKSGTASVVCLLNNFYPREAKVQWKVDNALQSGNSQESVTEQDSKDSTYSLSSTLTLSKADYEKHKVYACEVTHQGLSSPVTKSFNRGEC
notes: also called He Ab
For B3, in experiment [3], the He/Con_2b was 52.4 % of control. In addition, the He/Con_3a in experiment [4] was 101 % of control.

B4: GpH7-A5/GpH7-B3 variant P331_04F/GpL16-k0 (antibody, human IgG1, kappa)
heavy 1: not shown
heavy 2: not shown
light: DIVMTQSPLSLPVTPGEPASISCQASESLVHSNRNTYLHWYLQKPGQSPQLLIYKVSNRFSGVPDRFSGSGSGTDFTLKISRVEAEDVGVYYCSQNTHVPPTFGQGTKVEIERTVAAPSVFIFPPSDEQLKSGTASVVCLLNNFYPREAKVQWKVDNALQSGNSQESVTEQDSKDSTYSLSSTLTLSKADYEKHKVYACEVTHQGLSSPVTKSFNRGEC
notes: as for B1
Turning to B4, the He/Con_2b in experiment [1] is 110 % of GpH7-A5/GpH7-B3/GpL16-k0. The He/Con_3a in experiment [2] was 77.3 % of GpH7-A5/GpH7-B3/GpL16-k0.

B5: GpH7-A5/GpH7-B3 variant T335_18N/GpL16-k0 (antibody, human IgG1, kappa)
heavy 1: not shown
heavy 2: not shown
light: DIVMTQSPLSLPVTPGEPASISCQASESLVHSNRNTYLHWYLQKPGQSPQLLIYKVSNRFSGVPDRFSGSGSGTDFTLKISRVEAEDVGVYYCSQNTHVPPTFGQGTKVEIERTVAAPSVFIFPPSDEQLKSGTASVVCLLNNFYPREAKVQWKVDNALQSGNSQESVTEQDSKDSTYSLSSTLTLSKADYEKHKVYACEVTHQGLSSPVTKSFNRGEC
notes: as for B1
With B5, the He/Con_2b in experiment [1] is 102 % of GpH7-A5/GpH7-B3/GpL16-k0. Besides, in experiment [2], the He/Con_3a was 98.8 % of GpH7-A5/GpH7-B3/GpL16-k0.

B6: GpH7-A5/GpH7-B3 variant P331_16H/GpL16-k0 (antibody, human IgG1, kappa)
heavy 1: not shown
heavy 2: not shown
light: DIVMTQSPLSLPVTPGEPASISCQASESLVHSNRNTYLHWYLQKPGQSPQLLIYKVSNRFSGVPDRFSGSGSGTDFTLKISRVEAEDVGVYYCSQNTHVPPTFGQGTKVEIERTVAAPSVFIFPPSDEQLKSGTASVVCLLNNFYPREAKVQWKVDNALQSGNSQESVTEQDSKDSTYSLSSTLTLSKADYEKHKVYACEVTHQGLSSPVTKSFNRGEC
notes: as for B1
Regarding B6, in experiment [1], the He/Con_2b is 116 % of GpH7-A5/GpH7-B3/GpL16-k0. In experiment [2], the He/Con_3a was 80.2 % of GpH7-A5/GpH7-B3/GpL16-k0.

B7: GpH7-A5/GpH7-B3 variant P331_07I/GpL16-k0 (antibody, human IgG1, kappa)
heavy 1: not shown
heavy 2: not shown
light: DIVMTQSPLSLPVTPGEPASISCQASESLVHSNRNTYLHWYLQKPGQSPQLLIYKVSNRFSGVPDRFSGSGSGTDFTLKISRVEAEDVGVYYCSQNTHVPPTFGQGTKVEIERTVAAPSVFIFPPSDEQLKSGTASVVCLLNNFYPREAKVQWKVDNALQSGNSQESVTEQDSKDSTYSLSSTLTLSKADYEKHKVYACEVTHQGLSSPVTKSFNRGEC
notes: as for B1
Turning to B7, the He/Con_2b in experiment [1] is 114 % of GpH7-A5/GpH7-B3/GpL16-k0. Further, the He/Con_3a in experiment [2] is 66 % of GpH7-A5/GpH7-B3/GpL16-k0.

B8: GpH7-A5/GpH7-B3 variant P331_15Y/GpL16-k0 (antibody, human IgG1, kappa)
heavy 1: not shown
heavy 2: not shown
light: DIVMTQSPLSLPVTPGEPASISCQASESLVHSNRNTYLHWYLQKPGQSPQLLIYKVSNRFSGVPDRFSGSGSGTDFTLKISRVEAEDVGVYYCSQNTHVPPTFGQGTKVEIERTVAAPSVFIFPPSDEQLKSGTASVVCLLNNFYPREAKVQWKVDNALQSGNSQESVTEQDSKDSTYSLSSTLTLSKADYEKHKVYACEVTHQGLSSPVTKSFNRGEC
notes: as for B1
As to B8, the He/Con_2b in experiment [1] is 114 % of GpH7-A5/GpH7-B3/GpL16-k0. Moreover, in experiment [2], the He/Con_3a was 81.9 % of GpH7-A5/GpH7-B3/GpL16-k0.

B9: GpH7-A5/GpH7-B3 variant P331_20W/GpL16-k0 (antibody, human IgG1, kappa)
heavy 1: not shown
heavy 2: not shown
light: DIVMTQSPLSLPVTPGEPASISCQASESLVHSNRNTYLHWYLQKPGQSPQLLIYKVSNRFSGVPDRFSGSGSGTDFTLKISRVEAEDVGVYYCSQNTHVPPTFGQGTKVEIERTVAAPSVFIFPPSDEQLKSGTASVVCLLNNFYPREAKVQWKVDNALQSGNSQESVTEQDSKDSTYSLSSTLTLSKADYEKHKVYACEVTHQGLSSPVTKSFNRGEC
notes: as for B1
For the molecule B9, the He/Con_2b in experiment [1] was 111 % of GpH7-A5/GpH7-B3/GpL16-k0. In addition, the He/Con_3a in experiment [2] was 78.6 % of GpH7-A5/GpH7-B3/GpL16-k0.
